Results on three molecules are retold here after paper PMC13270999, “Chronology of tRNA structural dynamics prior to and during interaction with a pseudouridine synthase”.

Series [1] has as its target GST-tagged full-length S. cerevisiae Pus4 (S. cerevisiae) (UniProt P48567). The series can be described thus: sucrose gradient ultracentrifugation; 10 uM purified GST-Pus4 with and without 10 uM total yeast tRNA, 30 min at room temperature; 10-30% sucrose step gradient in Buffer B (50 mM Tris-HCl pH 7.5, 100 mM KCl), SW 55 Ti, 4 h at 55,000 rpm; fractions read by SDS-PAGE; standards beta-amylase and carbonic anhydrase; apparent molecular ….

The target in series [2] is T1, GST-Pus4 (Saccharomyces cerevisiae, UniProt P48567 1-403). The series is described as follows: smFRET / PIFE; 200 nM Pus4; BLI: 50 mM Tris-HCl pH 7.5, 100 mM KCl, 0.02% Tween-20, 30 °C; EMSA: 50 mM Tris-HCl pH 7.5, 100 mM KCl, 30 min room temperature, 8% native PAGE in TBE at 4 °C. The following applies: protein: recombinant; tags: N-terminal GST, Factor Xa site (pGEX-5X-3); tag not removed; label: 5' biotin; Cy3 at U4 C5; Cy5 at U41 C5; tRNA cloverleaf. On the technique in general: Mobility shift assays separate free from complexed probe on a gel.
T1 sequence (P48567 whole entry): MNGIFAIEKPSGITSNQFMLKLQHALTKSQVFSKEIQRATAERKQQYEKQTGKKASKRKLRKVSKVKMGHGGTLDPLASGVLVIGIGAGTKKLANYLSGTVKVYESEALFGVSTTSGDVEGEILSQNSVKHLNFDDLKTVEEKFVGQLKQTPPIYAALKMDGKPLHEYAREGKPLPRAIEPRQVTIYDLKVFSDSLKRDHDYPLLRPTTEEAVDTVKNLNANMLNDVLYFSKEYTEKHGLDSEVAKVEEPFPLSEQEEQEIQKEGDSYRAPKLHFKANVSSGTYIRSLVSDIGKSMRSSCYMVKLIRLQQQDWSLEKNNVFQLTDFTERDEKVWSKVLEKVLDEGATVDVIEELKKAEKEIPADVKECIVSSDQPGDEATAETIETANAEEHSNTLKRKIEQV

The target of series [3] is T1, GST-Pus4. The series can be described thus: EMSA; 30 nM RNA; all bound at >=200 nM Pus4, 30 min; labelled form assumed; BLI: 50 mM Tris-HCl pH 7.5, 100 mM KCl, 0.02% Tween-20, 30 °C; EMSA: 50 mM Tris-HCl pH 7.5, 100 mM KCl, 30 min room temperature, 8% native PAGE in TBE at 4 °C. The following applies: protein: recombinant; tags: N-terminal GST, Factor Xa site (pGEX-5X-3); tag not removed; label: 5' biotin; Cy3 at U4 C5; Cy5 at U41 C5; tRNA cloverleaf.

One may read the stoichiometry N as the number of molecules, sites or subunits per partner or assembly. Regarding “GST-tagged full-length S. cerevisiae Pus4 (from UniProt P48567 1-403) (enzyme)”, the stoichiometry N in series [1] came out at 2.

B1: Ψ55 tRNA eMet(CAU), Cy3/Cy5 (structured_RNA)
RNA: GCUUCAGUAGCUCAGUAGGAAGAGCGUCAGUCUCAUAAUCUGAAGGUCGAGAGUUCGAACCUCCCCUGGAGCACCA
modifications: pseudouridine at position 55 (second U of GAGAGUUCGAA)
For B1, the binding result with GST-Pus4 [2] was “binds”.

B2: U55 tRNA eMet(CAU), Cy3/Cy5 (structured_RNA)
RNA: B1 RNA
B2: the binding result in the series with GST-Pus4 [3] was “binds”.
